Molecular target: CCR5 (UniProt P51681)
Test: cell-based or functional assay

CCR5, sequence (P51681 whole entry): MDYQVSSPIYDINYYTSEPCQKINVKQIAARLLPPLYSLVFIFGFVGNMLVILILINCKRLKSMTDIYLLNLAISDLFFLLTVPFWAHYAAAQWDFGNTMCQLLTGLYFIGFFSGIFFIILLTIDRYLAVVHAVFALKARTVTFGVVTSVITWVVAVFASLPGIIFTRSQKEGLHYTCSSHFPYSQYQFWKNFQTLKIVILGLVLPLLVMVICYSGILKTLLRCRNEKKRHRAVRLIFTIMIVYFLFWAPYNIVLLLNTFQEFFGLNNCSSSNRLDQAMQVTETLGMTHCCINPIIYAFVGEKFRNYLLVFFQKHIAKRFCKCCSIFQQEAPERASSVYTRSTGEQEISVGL

aminooxypentane(AOP)-RANTES (from UniProt P13501 24-91) (ligand)
IC50, R5-tropic envelope-mediated cell fusion assay: 3 nM

Source: US20040258659A1
